The chains are these.
B1: GST-RK fragment F125-K175 (domain or fragment)
chain: FLDAETVARARAGAGDGLFQPLLRAVLAHLGQAPFQEFLDSLYFLRFLQWK
B2: GST-RK fragment L102-G183 (domain or fragment)
chain: LRPQKAQALRAAYLEPQAQLFCSFLDAETVARARAGAGDGLFQPLLRAVLAHLGQAPFQEFLDSLYFLRFLQWKWLEAQPMG
B3: GST-RK fragment M1-L102 (domain or fragment)
chain: MDFGSLETVVANSAFIAARGSFDASSGPASRDRKYLARLKLPPLSKCEALRESLDLGFEGMCLEQPIGKRLFQQFLRTHEQHGPALQLWKDIEDYDTADDAL
B4: GST fusion of the RK amino terminal region (N-RK: M1-G183) (domain or fragment)
chain: MDFGSLETVVANSAFIAARGSFDASSGPASRDRKYLARLKLPPLSKCEALRESLDLGFEGMCLEQPIGKRLFQQFLRTHEQHGPALQLWKDIEDYDTADDALRPQKAQALRAAYLEPQAQLFCSFLDAETVARARAGAGDGLFQPLLRAVLAHLGQAPFQEFLDSLYFLRFLQWKWLEAQPMG

The experiment deals with calmodulin (bovine, UniProt P62157 1-149). Description: SPR. A general note: SPR reads the build-up and loss of mass on a sensor chip optically.
Usually Kd stands for the equilibrium constant for the complex coming apart. The low end stands for a tighter complex, the high end for a looser complex. As for B1, the Kd was found to be 17 µM.
Molecule B2 returned a Kd of 23 µM.
The value for B3 was 54 µM.
Take B4: the Kd worked out at 63 µM.
